# Laboratory results taken from patent US20210238298A1 (ALLIGATOR BIOSCIENCE, published 2021).
# T1: OX40 chimera 1547: human OX40 with mouse domain 2B, module 3 and domain 4A (aa 83-141), on FreeStyle 293-F … (human; mouse, UniProt P47741 79-139)
# T1 construct: domain: 2B, module 3 and 4A; Limits derived as for 1544
# T1 sequence: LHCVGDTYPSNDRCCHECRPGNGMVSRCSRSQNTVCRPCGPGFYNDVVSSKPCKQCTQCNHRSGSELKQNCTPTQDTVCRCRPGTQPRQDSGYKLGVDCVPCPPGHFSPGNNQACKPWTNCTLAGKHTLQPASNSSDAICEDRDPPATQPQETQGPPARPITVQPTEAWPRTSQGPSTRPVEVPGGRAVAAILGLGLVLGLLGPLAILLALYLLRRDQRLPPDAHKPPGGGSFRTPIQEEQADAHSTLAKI
# T2: OX40 chimera 1548: human OX40 with mouse module 3 and domains 4A and 4B (aa 108-167), on FreeStyle 293-F cells (human; mouse, UniProt P47741 104-165)
# T2 construct: domain: module 3, 4A and 4B; Limits derived as for 1544
# T2 sequence: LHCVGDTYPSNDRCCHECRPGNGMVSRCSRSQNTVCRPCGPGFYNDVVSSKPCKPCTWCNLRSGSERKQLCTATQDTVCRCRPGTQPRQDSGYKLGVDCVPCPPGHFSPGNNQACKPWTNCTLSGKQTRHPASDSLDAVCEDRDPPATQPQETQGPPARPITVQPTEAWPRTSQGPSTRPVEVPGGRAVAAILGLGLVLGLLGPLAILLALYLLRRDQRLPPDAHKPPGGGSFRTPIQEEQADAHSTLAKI
# T3: OX40 chimera 1545: human OX40 with mouse domains 1B, 2A and 2B (aa 43-107), on FreeStyle 293-F cells (human; mouse, UniProt P47741 39-103)
# T3 construct: domain: 1B, 2A and 2B; Limits derived as for 1544
# T3 sequence: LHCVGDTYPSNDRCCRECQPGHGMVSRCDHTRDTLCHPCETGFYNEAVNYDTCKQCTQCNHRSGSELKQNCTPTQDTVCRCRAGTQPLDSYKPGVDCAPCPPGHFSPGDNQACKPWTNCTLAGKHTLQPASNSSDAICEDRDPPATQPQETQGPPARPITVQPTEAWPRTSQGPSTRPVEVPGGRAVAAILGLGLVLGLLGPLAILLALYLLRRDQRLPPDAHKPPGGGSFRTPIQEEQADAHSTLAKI
# T4: OX40 chimera 1549: human OX40 with mouse domains 1A and 4B and non-annotated extracellular region (aa 30-65 … (human; mouse, UniProt P47741 26-61; P47741 125-211)
# T4 construct: domain: 1A;domain: 4B and non-annotated extracellular region; Limits derived as for 1544
# T4 sequence: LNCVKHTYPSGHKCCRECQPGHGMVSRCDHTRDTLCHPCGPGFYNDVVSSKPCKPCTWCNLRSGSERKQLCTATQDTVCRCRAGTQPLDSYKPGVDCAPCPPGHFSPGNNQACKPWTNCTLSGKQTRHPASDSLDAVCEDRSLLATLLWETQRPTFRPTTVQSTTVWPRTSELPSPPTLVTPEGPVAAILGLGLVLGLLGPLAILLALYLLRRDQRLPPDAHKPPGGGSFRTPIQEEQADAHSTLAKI
# T5: extracellular part of human OX40 fused to the transmembrane and intracellular part of hCD40, on CHO cells (human, UniProt P25942 194-277, limits assumed)
# T5 construct: domain: transmembrane and intracellular part; also called hOX40 overexpressed on CHO cells; huOX40 (CHO)
# T5 sequence: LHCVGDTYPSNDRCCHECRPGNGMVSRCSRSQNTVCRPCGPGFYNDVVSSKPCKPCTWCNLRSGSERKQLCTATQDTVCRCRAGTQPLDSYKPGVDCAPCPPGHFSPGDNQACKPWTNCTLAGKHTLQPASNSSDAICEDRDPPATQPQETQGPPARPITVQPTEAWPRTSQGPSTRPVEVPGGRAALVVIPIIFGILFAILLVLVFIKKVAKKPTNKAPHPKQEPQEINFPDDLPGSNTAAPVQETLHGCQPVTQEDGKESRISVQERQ
# What was measured:
# [1] = molecular target: T1, OX40 chimera 1547: human OX40 with …; experiment: flow cytometry, 293-F transfectants
# [2] = molecular target: T2, OX40 chimera 1548: human OX40 with …; experiment: flow cytometry, 293-F transfectants
# [3] = molecular target: T3, OX40 chimera 1545: human OX40 with …; experiment: flow cytometry, 293-F transfectants
# [4] = molecular target: T4, OX40 chimera 1549: human OX40 with …; experiment: flow cytometry, 293-F transfectants
# [5] = molecular target: T5, extracellular part of human OX40 fused …; experiment: flow cytometry, cells with human OX40; 95% confidence interval
# Experimental: (§1) For the assay, the transfected cells were incubated with the test antibodies and controls for 30 min at 4° C. and then detected with a-huIgG-PE (Jackson Immunoresearch) 30 min 4° C. Cells were analyzed by flow cytometry with FACS Verse (BD Biosciences).
# [6] = molecular target: extracellular part of OX40 from Macaca mulatta fused to the transmembrane and intracellular part of hCD40, on … (Macaca mulatta; human, UniProt A0A5F7ZKD5 21-541; P25942 194-277); experiment: flow cytometry, macOX40-HEK cells; 95% confidence interval
# Experimental: as §1
# [7] = molecular target: T5, extracellular part of human OX40 fused …; experiment: flow cytometry, CHO cells with human OX40 (extracellular part on hCD40 transmembrane and intracellular part), anti-huIgG-PE
# Experimental: as §1, with “The extracellular part of human OX40 was fused to the transmembrane and intracellular part of hCD40 and cloned into pcDNA3.0. The vector was subsequently stably transfected into CHO cells. […] For” for “For”
relative MFI vs isotype control [1],relative MFI vs isotype control [2],relative MFI vs isotype control [3],relative MFI vs isotype control [4],EC50 [5],EC50 [6],EC50 (read off the curve) [7],Binder
1,1.1,44.4,8.7,0.082 to 0.182 µg/mL,0.157 to 0.312 µg/mL,–,"anti-OX40 antibody 1482/1483 (antibody, V domains shown, Tested as IgG) VH: EVQLLESGGGLVQPGGSLRLSCAASGFTFSSYAMSWVRQAPGKGLEWVSYISYYSGYTYYADSVKGRFTISRDNSKNTLYLQMNSLRAEDTAVYYCARGYGYLDYWGQGTLVTVSS VL: DIQMTQSPSSLSASVGDRVTITCRASQSISSYLNWYQQKPGKAPKLLIYAASSLQSGVPSRFSGSGSGTDFTLTISSLQPEDFATYYCQQYGSLLTFGQGTKLEIK"
1,1,46.6,–,0.0636 to 0.131 µg/mL,0.0905 to 0.194 µg/mL,–,"anti-OX40 antibody 1168/1135 (antibody, V domains shown, Tested as IgG) VH: EVQLLESGGGLVQPGGSLRLSCAASGFTFSGSSMSWVRQAPGKGLEWVSSISYYGGYTYYADSVKGRFTISRDNSKNTLYLQMNSLRAEDTAVYYCARYFPHYYFDYWGQGTLVTVSS VL: not shown"
1,1,37.3,–,–,–,~0.01 µg/mL,"anti-OX40 antibody 1164/1135 (antibody, V domains shown, Tested as IgG) VH: EVQLLESGGGLVQPGGSLRLSCAASGFTFYGSSMYWVRQAPGKGLEWVSGIYSSGGYTSYADSVKGRFTISRDNSKNTLYLQMNSLRAEDTAVYYCARGVPHGYFDYWGQGTLVTVSS VL: not shown"
1,1.2,40.2,13,0.322 to 0.552 µg/mL,0.722 to 1.41 µg/mL,–,"anti-OX40 antibody 1542/1135 (antibody, V domains shown, Tested as IgG) VH: EVQLLESGGGLVQPGGSLRLSCAASGFTFGSSSMYWVRQAPGKGLEWVSGIGYYSYSTSYADSVKGRFTISRDNSKNTLYLQMNSLRAEDTAVYYCARGYPHHYFDYWGQGTLVTVSS VL: not shown"
1,15.4,0.9,11.2,–,–,~0.05 µg/mL,"anti-OX40 antibody 1524/1525 (antibody, V domains shown, Tested as IgG) VH: EVQLLESGGGLVQPGGSLRLSCAASGFTFGSYYMGWVRQAPGKGLEWVSSIGSYYGYTYYADSVKGRFTISRDNSKNTLYLQMNSLRAEDTAVYYCARHDYGALDYWGQGTLVTVSS VL: DIQMTQSPSSLSASVGDRVTITCRASQSISSYLNWYQQKPGKAPKLLIYAASSLQSGVPSRFSGSGSGTDFTLTISSLQPEDFATYYCQQYGPSGLFTFGQGTKLEIK"
1,12.7,1.3,8.5,0.172 to 0.429 µg/mL,0.292 to 0.589 µg/mL,–,"anti-OX40 antibody 1526/1527 (antibody, V domains shown, Tested as IgG) VH: EVQLLESGGGLVQPGGSLRLSCAASGFTFSGYSMYWVRQAPGKGLEWVSGIGYSGYGTYYADSVKGRFTISRDNSKNTLYLQMNSLRAEDTAVYYCARYYFHDYAAYSLDYWGQGTLVTVSS VL: DIQMTQSPSSLSASVGDRVTITCRASQSISSYLNWYQQKPGKAPKLLIYAASSLQSGVPSRFSGSGSGTDFTLTISSLQPEDFATYYCQQYGSDSLLTFGQGTKLEIK"
